PMC7864079, “Molecular basis for histone H3 “K4me3-K9me3/2” methylation pattern readout by Spindlin1” (The Journal of Biological Chemistry, 2021)

Target: double Tudor domains of JMJD2A
Assay: ITC; reader domains (BPTF, RAG2, ZCWPW1, SGF29, JMJD2A) titrated with H3 peptides; 25°C; One Set of Binding Sites model

Substance | Kd [nM]
H3_(1–20) K4me3 peptide (from UniProt P68431 2-21) | 600
H3_(1–20) “K4me3-K9me3” peptide (from UniProt P68431 2-21) | 900
